Molecular target: T1, PP1c (Homo sapiens, UniProt P62136)
T1 construct: His tag with TEV site (N, cleaved yes); intein (pTXB1) (C, cleaved yes); made in house; host or cells: E. coli BL21Star(DE3)pRARE
Assay: Phosphoproteome dephosphorylation assay of HeLa Kyoto lysate with recombinant PP1c (TMT phosphoproteomics)
Assay type: biochemical
Details: 1 µM recombinant phosphatase, 1 h at 30 °C, 20 nM Calyculin A, three replicates
Description: For phosphoproteomics, HeLa Kyoto cells were incubated with 20 nM Calyculin A (CST, #9902) for 10–15 min. This time point was determined empirically to yield maximal phosphatase inhibition without cells showing pleiotropic effects. Subsequently, cells were placed on ice and washed twice with cold PBS and scraped in lysis buffer (100 mM NaCl, 10 mM Tris, 0.1% IGEPAL, 1 mM EDTA, 1 mM EGTA, 20 nM Calyculin A, 1x cOmplete Mini protease inhibitor cocktail (Sigma), 1 mM DTT, 1 mM MnCl2, pH 7.5). After 10 pushes through an injection needle (21 G, BD), lysate was cleared from the insoluble fraction by centrifugation (10 min, 10^4 rcf, 4 °C). Protein concentration was then determined by a Bradford Assay and equal amounts of 1 mg total protein were incubated with recombinant PP1c/PP2Ac or buffer at a final phosphatase concentration of 1 µM in a total volume of 200 µL for 1 h at 30 °C. Lysates were then immediately placed on ice. PhosStop […] (Roche) was added and proteins were denatured by adding urea to a final concentration of 8 M taking into account the volume increase. Samples were then snap-frozen in liquid nitrogen for storage and subsequent MS analysis.
Treated lysates were reduced (10 mM DTT, 30 °C, 30 min) and alkylated (50 mM chloroacetamide, room temperature, 30 min, in the dark), and then diluted to 1.3 M urea using 40 mM Tris-HCl (pH 7.6). […]

T1 sequence (P62136 whole entry): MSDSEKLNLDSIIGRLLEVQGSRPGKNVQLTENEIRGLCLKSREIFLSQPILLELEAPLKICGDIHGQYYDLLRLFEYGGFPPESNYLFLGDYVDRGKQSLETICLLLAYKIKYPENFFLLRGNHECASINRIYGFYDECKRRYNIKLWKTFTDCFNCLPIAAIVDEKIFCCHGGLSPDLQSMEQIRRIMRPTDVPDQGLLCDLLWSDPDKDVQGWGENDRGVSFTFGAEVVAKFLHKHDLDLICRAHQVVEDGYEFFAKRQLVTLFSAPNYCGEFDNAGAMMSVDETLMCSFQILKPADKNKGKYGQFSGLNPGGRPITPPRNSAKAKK

PP1c: recombinant catalytic subunit of PP1
number of class I p-sites dephosphorylated by PP1: 1967 p-sites
